Source: paper PMC12267109, “The enzyme kinetics of branched‐chain fatty acid synthesis of metazoan fatty acid synthase” (Protein Science : A Publication of the Protein Society, 2025)

What was measured:
[1] = target: KS-MAT^S581A didomain of murine FAS (functional MAT knockout) (murine)
[2] = system: CC(=O)SCCNC(=O)CCNC(=O)[C@H](O)C(C)(C)COP(=O)(O)OP(=O)(O)OC[C@H]1O[C@@H](n2cnc3c(N)ncnc32)[C@H](O)[C@@H]1OP(=O)(O)O; test: purified protein; details: NADPH substrates likely compete in the malonyl-acetyl transferase (MAT) binding pocket

Inhibition constant K i (substrate inhibition on titration of decanoyl-ACP at constant metmal-ACP; KS elongation activity by the enzyme-coupled MabA assay, apparent constant) [1] [µM]	Substance	Km [2] [µM]
270	decanoyl-acyl carrier protein (ACP) (domain or fragment)	–
–	metazoan fatty acid synthase (mFAS), murine FAS (Mus musculus)	69 ± 12
